Test results published in patent US11446371B2, “Targeting of ligand binding sites in ClfA” (THE TEXAS A&M UNIVERSITY SYSTEM, priority 2015, dated 2022).
Residue numbers refer to the chain shown, from its start. “Also recorded” adds a separate entry of the source. Where a SMILES comes first, the peptide text is derived from it.

B1: ClfAPWY (protein)
chain: VAADAPAAGTDITNQLTNVTVGIDSGTTVYPHQAGYVKLNYGFSVPNSAVKGDTFKITVPKELNLNGVTSTAKVPPIMAGDQVLANGVIDSDGNVIYTFTDYVNTKDDVKATLTMPAYIDPENVKKTGNVTLATGIGSTTANKTVLVDYEKYGKFYNLSIKGTIDQIDKTNNTYRQTIYVNPSGDNVIAPVLTGNLKPNTDSNALIDQQNTSIKVYKVDNAADLSESYFVNPENFEDVTNSVNITFANPNQYKVEFNTPDDQITTPYIVVVNGHIDPNSKGDLALRSTLYGANSNIIARSMSWDNEVAFNNGSGSGDGIDKPVVPEQPDEPGEIEPIPE
B2: ClfA221-559: recombinant ClfA residues 221-559 (N2N3 subdomains) from S. aureus strain Newman (protein)
chain: B1 chain with A247P, A292Y, A298W
B3: ClfA370-559: recombinant form of the ClfA N3 subdomain (protein)
chain: EKYGKFYNLSIKGTIDQIDKTNNTYRQTIYVNPSGDNVIAPVLTGNLKPNTDSNALIDQQNTSIKVYKVDNAADLSESYFVNPENFEDVTNSVNITFPNPNQYKVEFNTPDDQITTPYIVVVNGHIDPNSKGDLALRSTLYGYNSNIIWRSMSWDNEVAFNNGSGSGDGIDKPVVPEQPDEPGEIEPIPE

Columns and labels:
ClfACC = biological target: T1, ClfACC (Staphylococcus aureus, UniProt Q53653, D327C/K541C); test: ITC, synthetic C-terminal γ-chain peptide titrated into ClfACC; type: binding, S. aureus; details: peptide titrated into cell containing ClfACC
T1 construct: made in house; host or cells: E. coli Topp3
T1 sequence (Q53653 229-545 D327C/K541C limits assumed): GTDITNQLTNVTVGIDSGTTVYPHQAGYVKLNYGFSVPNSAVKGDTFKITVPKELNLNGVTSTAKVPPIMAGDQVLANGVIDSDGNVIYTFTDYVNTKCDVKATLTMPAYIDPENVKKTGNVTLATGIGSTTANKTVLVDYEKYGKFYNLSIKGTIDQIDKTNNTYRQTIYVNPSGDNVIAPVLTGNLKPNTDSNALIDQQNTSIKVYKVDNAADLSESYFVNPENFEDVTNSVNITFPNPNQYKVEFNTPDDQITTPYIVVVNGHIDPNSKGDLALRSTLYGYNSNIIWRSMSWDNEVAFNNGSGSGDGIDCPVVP

Fg binding to ClfA = Fg binding to ClfA (Staphylococcus aureus, UniProt Q53653); test: Reduction of Fg binding to ClfA by synthetic Fg γ-peptide; set-up: species or system S. aureus; details: even at high concentrations
immobilized human Fg [1] = biological target: T2, immobilized human Fg (Homo sapiens, UniProt P02671+P02675+P02679); test: SPR binding of ClfA proteins to immobilized Fg; details: 0.1 μM ClfA221-559 variant
T2 construct: immobilized intact Fg
T2 sequence (P02671 20-644 isoform P02671-2 limits assumed): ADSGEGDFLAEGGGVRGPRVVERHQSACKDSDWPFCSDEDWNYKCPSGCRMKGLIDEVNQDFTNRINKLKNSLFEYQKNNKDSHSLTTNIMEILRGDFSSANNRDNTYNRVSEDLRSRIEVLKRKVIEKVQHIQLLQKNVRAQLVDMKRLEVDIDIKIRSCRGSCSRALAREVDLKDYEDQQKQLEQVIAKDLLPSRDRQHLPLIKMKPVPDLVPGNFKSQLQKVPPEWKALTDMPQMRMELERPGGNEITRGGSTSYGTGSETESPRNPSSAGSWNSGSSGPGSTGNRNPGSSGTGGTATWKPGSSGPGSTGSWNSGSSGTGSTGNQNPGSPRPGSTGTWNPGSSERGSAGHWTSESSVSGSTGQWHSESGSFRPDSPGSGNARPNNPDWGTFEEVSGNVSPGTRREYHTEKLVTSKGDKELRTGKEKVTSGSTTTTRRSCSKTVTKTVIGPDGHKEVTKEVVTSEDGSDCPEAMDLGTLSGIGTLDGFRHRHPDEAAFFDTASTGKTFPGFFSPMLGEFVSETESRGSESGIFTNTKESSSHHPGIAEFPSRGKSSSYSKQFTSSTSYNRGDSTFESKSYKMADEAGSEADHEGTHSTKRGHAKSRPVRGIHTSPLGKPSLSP
T2 sequence (P02675 31-491): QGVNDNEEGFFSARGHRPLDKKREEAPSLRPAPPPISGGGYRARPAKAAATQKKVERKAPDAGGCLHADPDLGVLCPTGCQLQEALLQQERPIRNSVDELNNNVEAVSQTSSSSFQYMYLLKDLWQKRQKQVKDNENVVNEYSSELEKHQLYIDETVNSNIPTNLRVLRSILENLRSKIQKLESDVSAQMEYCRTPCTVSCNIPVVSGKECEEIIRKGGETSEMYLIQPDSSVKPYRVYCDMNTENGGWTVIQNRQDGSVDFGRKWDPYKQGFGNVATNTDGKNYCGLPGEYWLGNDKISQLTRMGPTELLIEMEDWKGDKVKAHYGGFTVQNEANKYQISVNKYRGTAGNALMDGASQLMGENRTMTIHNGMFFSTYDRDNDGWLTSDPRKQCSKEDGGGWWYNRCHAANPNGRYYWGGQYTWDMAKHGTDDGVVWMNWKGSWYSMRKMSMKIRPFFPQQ
T2 sequence (P02679 27-437 isoform P02679-2 limits assumed): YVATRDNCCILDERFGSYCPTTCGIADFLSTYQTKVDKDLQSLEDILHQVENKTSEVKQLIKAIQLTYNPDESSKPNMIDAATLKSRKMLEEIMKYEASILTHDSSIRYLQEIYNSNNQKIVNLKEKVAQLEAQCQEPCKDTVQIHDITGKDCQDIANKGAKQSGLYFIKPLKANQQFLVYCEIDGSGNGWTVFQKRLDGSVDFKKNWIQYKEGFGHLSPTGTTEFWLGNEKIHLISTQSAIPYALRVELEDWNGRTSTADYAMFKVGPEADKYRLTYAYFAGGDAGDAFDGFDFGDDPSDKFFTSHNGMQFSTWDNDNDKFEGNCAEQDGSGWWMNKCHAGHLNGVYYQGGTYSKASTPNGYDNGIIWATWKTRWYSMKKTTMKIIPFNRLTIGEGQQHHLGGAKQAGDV
Experimental: (§1) Surface Plasmon Resonance. Surface plasmon resonance-based binding experiments were performed at 25° C. on a Biacore 3000 (GE Healthcare/Biacore, Uppsala, Sweden). Phosphate buffered saline (PBS-T: 8.06 mM Na2HPO4, 1.94 mM KH2PO4, 2.7 mM KCl and 137 mM NaCl, pH 7.4, and 0.005% Tween-20) was used as running buffer for immobilization and binding experiments. Flow rate of 5 μl/min was used during immobilization and a higher rate 30 or 50 μl/min for binding experiments. The fibrinogen (Fg) surface was prepared on a CM5 sensor chip via standard amine-coupling chemistry. A Fg solution (10 μl of 20 μg/ml in sodium citrate, pH5.5) was injected to an activated (4 min) flow cell. After deactivation, about 7000 resonance units (RU) of Fg were immobilized. A reference surface was prepared with activation and deactivation steps but no protein coupled. […] For GST fusion protein capturing, approximately 11000 RU of goat anti-GST antibody (GE Healthcare/Biacore) were immobilized simultaneously on two flow cells on a CM5 sensor chip. GST-tagged Fg γ-peptide (20 μg/ml in PBS-T) was captured by the antibody and created a ligand surface (about 700 RU). The other flow cell with GST captured (about 900 RU) served as a reference surface. […] All SPR responses were baseline corrected by subtracting response generated from reference surface.
(§2) Since most of the known and putative Fg interactive sites in ClfA are located within the N3 subdomain we examined the interactions of a recombinant form of N3 (ClfA370-559) to the different forms of immobilized Fg.

immobilized Tefibazumab = test: SPR binding of ClfA221-559 variants to immobilized Tefibazumab; details: 0.1 μM ClfA221-559 variant
Excerpt: Surface Plasmon Resonance.
FIG. 3A is a ribbon diagram of ClfA-N3 domain showing the positions of PWY. The Fg γ-peptide is shown as a ribbon to show the location of the Fg γ-peptide binding site. […] The amino acid substitutions in the variant proteins were made at the mAb binding site. FIG. 3C is a graph of ClfAPWY and Fg-γ P16 peptide interaction measured by ITC.

immobilized human Fg [2] = test: SPR binding of ClfA proteins to immobilized Fg; details: immobilized Fg, Fg D-fragment, GST-γ-peptide
Experimental: as §1, §2

Row | Molecule | binding to immobilized human Fg (immobilized human Fg [1]) | binding to immobilized Tefibazumab (immobilized Tefibazumab) | fold difference in KD between binding to γ-peptide and to Fg or Fg D-fragment (immobilized human Fg [2]) | further results
1 | CC(C)C[C@H](NC(=O)[C@H](Cc1c[nH]cn1)NC(=O)[C@H](Cc1c[nH]cn1)NC(=O)[C@H](CCC(N)=O)NC(=O)[C@H](CCC(N)=O)NC(=O)CNC(=O)[C@H](CCC(=O)O)NC(=O)CN)C(=O)NCC(=O)NCC(=O)N[C@@H](C)C(=O)N[C@@H](CCCCN)C(=O)N[C@@H](CCC(N)=O)C(=O)N[C@@H](C)C(=O)NCC(=O)N[C@@H](CC(=O)O)C(=O)N[C@H](C(=O)O)C(C)C [Fg γ-peptide] (H-GEGQQHHLGGAKQAGDV-OH; N-terminus and C-terminus assumed) |  |  |  | Kd (ClfACC): 9 µM; maximum reduction of Fg binding to ClfA (Fg binding to ClfA): ~50%
2 | Y512A | reduced binding | slightly reduced binding |  | 
3 | B1 | minimal binding | almost completely abolished; also recorded: completely lost its ability to bind |  | 
4 | B2 |  |  | 4-7 fold | 
5 | B3 |  |  | about 10 fold | 
